The text below walks through data of publication PMC7206793 (Science (New York, N.Y.), 2019).

B2: Flag (N-terminus)- and V5 (C-terminus)-tagged recombinant human Lmbr1l protein (natural protein, UniProt Q6UX01 1-489, looked up)
chain: MEAPDYEVLSVREQLFHERIRECIISTLLFATLYILCHIFLTRFKKPAEFTTVDDEDATVNKIALELCTFTLAIALGAVLLLPFSIISNEVLLSLPRNYYIQWLNGSLIHGLWNLVFLFSNLSLIFLMPFAYFFTESEGFAGSRKGVLGRVYETVVMLMLLTLLVLGMVWVASAIVDKNKANRESLYDFWEYYLPYLYSCISFLGVLLLLVCTPLGLARMFSVTGKLLVKPRLLEDLEEQLYCSAFEEAALTRRICNPTSCWLPLDMELLHRQVLALQTQRVLLEKRRKASAWQRNLGYPLAMLCLLVLTGLSVLIVAIHILELLIDEAAMPRGMQGTSLGQVSFSKLGSFGAVIQVVLIFYLMVSSVVGFYSSPLFRSLRPRWHDTAMTQIIGNCVCLLVLSSALPVFSRTLGLTRFDLLGDFGRFNWLGNFYIVFLYNAAFAGLTTLCLVKTFTAAVRAELIRAFGLDRLPLPVSGFPQASRKTQHQ

Experiment [1] deals with B2. In words: peptide or protein array.
Experiment [2] deals with T1, β-catenin (on the human protein microarray) (human, UniProt P35222 1-781).
T1 sequence (looked up): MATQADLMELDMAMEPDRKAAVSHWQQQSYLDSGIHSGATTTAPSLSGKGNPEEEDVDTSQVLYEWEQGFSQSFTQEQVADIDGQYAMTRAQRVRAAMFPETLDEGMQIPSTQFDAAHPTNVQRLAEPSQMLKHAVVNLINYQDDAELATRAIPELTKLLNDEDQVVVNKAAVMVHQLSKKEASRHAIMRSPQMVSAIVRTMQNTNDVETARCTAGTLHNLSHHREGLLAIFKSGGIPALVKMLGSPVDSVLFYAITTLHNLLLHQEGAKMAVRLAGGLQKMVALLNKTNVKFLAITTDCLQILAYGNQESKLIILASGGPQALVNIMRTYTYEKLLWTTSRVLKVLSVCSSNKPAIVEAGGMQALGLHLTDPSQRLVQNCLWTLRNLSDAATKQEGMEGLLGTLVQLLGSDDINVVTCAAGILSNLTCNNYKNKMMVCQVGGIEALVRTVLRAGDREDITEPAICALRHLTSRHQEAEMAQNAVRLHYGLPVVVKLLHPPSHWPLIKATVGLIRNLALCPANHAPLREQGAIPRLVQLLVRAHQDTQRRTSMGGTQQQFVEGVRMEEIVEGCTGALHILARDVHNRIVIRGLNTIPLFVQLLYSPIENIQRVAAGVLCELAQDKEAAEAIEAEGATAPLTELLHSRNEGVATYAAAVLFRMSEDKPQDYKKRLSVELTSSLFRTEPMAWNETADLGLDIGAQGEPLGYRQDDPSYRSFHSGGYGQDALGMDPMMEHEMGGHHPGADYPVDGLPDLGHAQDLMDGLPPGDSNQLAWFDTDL
In words: peptide or protein array.

B1: casein kinase 1 ε (on the human protein microarray) (natural protein, UniProt P49674 1-416, looked up)
chain: MELRVGNKYRLGRKIGSGSFGDIYLGANIASGEEVAIKLECVKTKHPQLHIESKFYKMMQGGVGIPSIKWCGAEGDYNVMVMELLGPSLEDLFNFCSRKFSLKTVLLLADQMISRIEYIHSKNFIHRDVKPDNFLMGLGKKGNLVYIIDFGLAKKYRDARTHQHIPYRENKNLTGTARYASINTHLGIEQSRRDDLESLGYVLMYFNLGSLPWQGLKAATKRQKYERISEKKMSTPIEVLCKGYPSEFSTYLNFCRSLRFDDKPDYSYLRQLFRNLFHRQGFSYDYVFDWNMLKFGAARNPEDVDRERREHEREERMGQLRGSATRALPPGPPTGATANRLRSAAEPVASTPASRIQPAGNTSPRAISRVDRERKVSMRLHRGAPANVSSSDLTGRQEVSRIPASQTSVPFDHLGK
For the molecule B1, the binding result in experiment [1] is reported as “binds”.

For B2, the binding result in experiment [2] is listed as “binds”.
